From publication PMC4351158 (Structure (London, England : 1993), 2015)

B1: R178A/H198P (protein, UniProt P0AEE3 1-355, looked up, variant R178A H198P)
Serine endoprotease DegS: MFVKLLRSVAIGLIVGAILLVAMPSLRSLNPLSTPQFDSTDETPASYNLAVRRAAPAVVNVYNRGLNTNSHNQLEIRTLGSGVIMDQRGYIITNKHVINDADQIIVALQDGRVFEALLVGSDSLTDLAVLKINATGGLPTIPINARRVPHIGDVVLAIGNPYNLGQTITQGIISATGAIGLNPTGRQNFLQTDASINPGNSGGALVNSLGELMGINTLSFDKSNDGETPEGIGFAIPFQLATKIMDKLIRDGRVIRGYIGIGGREIAPLHAQGGGIDQLQGIVVNEVSPDGPAANAGIQVNDLIISVDNKPAISALETMDQVAEIRPGSVIPVVVMRDDKQLTLQVTIQEYPATN
B2: F220A/H198P (protein, UniProt P0AEE3 1-355, looked up, variant F220A H198P)
Serine endoprotease DegS: MFVKLLRSVAIGLIVGAILLVAMPSLRSLNPLSTPQFDSTDETPASYNLAVRRAAPAVVNVYNRGLNTNSHNQLEIRTLGSGVIMDQRGYIITNKHVINDADQIIVALQDGRVFEALLVGSDSLTDLAVLKINATGGLPTIPINARRVPHIGDVVLAIGNPYNLGQTITQGIISATGRIGLNPTGRQNFLQTDASINPGNSGGALVNSLGELMGINTLSADKSNDGETPEGIGFAIPFQLATKIMDKLIRDGRVIRGYIGIGGREIAPLHAQGGGIDQLQGIVVNEVSPDGPAANAGIQVNDLIISVDNKPAISALETMDQVAEIRPGSVIPVVVMRDDKQLTLQVTIQEYPATN
B3: R178A: DegS variant R178A (protein)
chain: RSLNPLSTPQFDSTDETPASYNLAVRRAAPAVVNVYNRGLNTNSHNQLEIRTLGSGVIMDQRGYIITNKHVINDADQIIVALQDGRVFEALLVGSDSLTDLAVLKINATGGLPTIPINARRVPHIGDVVLAIGNPYNLGQTITQGIISATGAIGLNPTGRQNFLQTDASINHGNSGGALVNSLGELMGINTLSFDKSNDGETPEGIGFAIPFQLATKIMDKLIRDGRVIRGYIGIGGREIAPLHAQGGGIDQLQGIVVNEVSPDGPAANAGIQVNDLIISVDNKPAISALETMDQVAEIRPGSVIPVVVMRDDKQLTLQVTIQEYPATN
modifications: left off: His6, N-terminal, state not stated
B4: F220A: DegS variant F220A (protein)
chain: RSLNPLSTPQFDSTDETPASYNLAVRRAAPAVVNVYNRGLNTNSHNQLEIRTLGSGVIMDQRGYIITNKHVINDADQIIVALQDGRVFEALLVGSDSLTDLAVLKINATGGLPTIPINARRVPHIGDVVLAIGNPYNLGQTITQGIISATGRIGLNPTGRQNFLQTDASINHGNSGGALVNSLGELMGINTLSADKSNDGETPEGIGFAIPFQLATKIMDKLIRDGRVIRGYIGIGGREIAPLHAQGGGIDQLQGIVVNEVSPDGPAANAGIQVNDLIISVDNKPAISALETMDQVAEIRPGSVIPVVVMRDDKQLTLQVTIQEYPATN
modifications: left off: His6, N-terminal, state not stated
B5: P161A: DegS variant P161A (protein)
chain: RSLNPLSTPQFDSTDETPASYNLAVRRAAPAVVNVYNRGLNTNSHNQLEIRTLGSGVIMDQRGYIITNKHVINDADQIIVALQDGRVFEALLVGSDSLTDLAVLKINATGGLPTIPINARRVPHIGDVVLAIGNAYNLGQTITQGIISATGRIGLNPTGRQNFLQTDASINHGNSGGALVNSLGELMGINTLSFDKSNDGETPEGIGFAIPFQLATKIMDKLIRDGRVIRGYIGIGGREIAPLHAQGGGIDQLQGIVVNEVSPDGPAANAGIQVNDLIISVDNKPAISALETMDQVAEIRPGSVIPVVVMRDDKQLTLQVTIQEYPATN
modifications: left off: His6, N-terminal, state not stated
B6: L164A: DegS variant L164A (protein)
chain: RSLNPLSTPQFDSTDETPASYNLAVRRAAPAVVNVYNRGLNTNSHNQLEIRTLGSGVIMDQRGYIITNKHVINDADQIIVALQDGRVFEALLVGSDSLTDLAVLKINATGGLPTIPINARRVPHIGDVVLAIGNPYNAGQTITQGIISATGRIGLNPTGRQNFLQTDASINHGNSGGALVNSLGELMGINTLSFDKSNDGETPEGIGFAIPFQLATKIMDKLIRDGRVIRGYIGIGGREIAPLHAQGGGIDQLQGIVVNEVSPDGPAANAGIQVNDLIISVDNKPAISALETMDQVAEIRPGSVIPVVVMRDDKQLTLQVTIQEYPATN
modifications: left off: His6, N-terminal, state not stated
B7: T167V: DegS variant T167V (protein)
chain: RSLNPLSTPQFDSTDETPASYNLAVRRAAPAVVNVYNRGLNTNSHNQLEIRTLGSGVIMDQRGYIITNKHVINDADQIIVALQDGRVFEALLVGSDSLTDLAVLKINATGGLPTIPINARRVPHIGDVVLAIGNPYNLGQVITQGIISATGRIGLNPTGRQNFLQTDASINHGNSGGALVNSLGELMGINTLSFDKSNDGETPEGIGFAIPFQLATKIMDKLIRDGRVIRGYIGIGGREIAPLHAQGGGIDQLQGIVVNEVSPDGPAANAGIQVNDLIISVDNKPAISALETMDQVAEIRPGSVIPVVVMRDDKQLTLQVTIQEYPATN
modifications: left off: His6, N-terminal, state not stated
B8: Q191A: DegS variant Q191A (protein)
chain: RSLNPLSTPQFDSTDETPASYNLAVRRAAPAVVNVYNRGLNTNSHNQLEIRTLGSGVIMDQRGYIITNKHVINDADQIIVALQDGRVFEALLVGSDSLTDLAVLKINATGGLPTIPINARRVPHIGDVVLAIGNPYNLGQTITQGIISATGRIGLNPTGRQNFLATDASINHGNSGGALVNSLGELMGINTLSFDKSNDGETPEGIGFAIPFQLATKIMDKLIRDGRVIRGYIGIGGREIAPLHAQGGGIDQLQGIVVNEVSPDGPAANAGIQVNDLIISVDNKPAISALETMDQVAEIRPGSVIPVVVMRDDKQLTLQVTIQEYPATN
modifications: left off: His6, N-terminal, state not stated
B9: Y162A: DegS variant Y162A (protein)
chain: RSLNPLSTPQFDSTDETPASYNLAVRRAAPAVVNVYNRGLNTNSHNQLEIRTLGSGVIMDQRGYIITNKHVINDADQIIVALQDGRVFEALLVGSDSLTDLAVLKINATGGLPTIPINARRVPHIGDVVLAIGNPANLGQTITQGIISATGRIGLNPTGRQNFLQTDASINHGNSGGALVNSLGELMGINTLSFDKSNDGETPEGIGFAIPFQLATKIMDKLIRDGRVIRGYIGIGGREIAPLHAQGGGIDQLQGIVVNEVSPDGPAANAGIQVNDLIISVDNKPAISALETMDQVAEIRPGSVIPVVVMRDDKQLTLQVTIQEYPATN
modifications: left off: His6, N-terminal, state not stated
B10: T169A: DegS variant T169A (protein)
chain: RSLNPLSTPQFDSTDETPASYNLAVRRAAPAVVNVYNRGLNTNSHNQLEIRTLGSGVIMDQRGYIITNKHVINDADQIIVALQDGRVFEALLVGSDSLTDLAVLKINATGGLPTIPINARRVPHIGDVVLAIGNPYNLGQTIAQGIISATGRIGLNPTGRQNFLQTDASINHGNSGGALVNSLGELMGINTLSFDKSNDGETPEGIGFAIPFQLATKIMDKLIRDGRVIRGYIGIGGREIAPLHAQGGGIDQLQGIVVNEVSPDGPAANAGIQVNDLIISVDNKPAISALETMDQVAEIRPGSVIPVVVMRDDKQLTLQVTIQEYPATN
modifications: left off: His6, N-terminal, state not stated

Test system: periplasmic domain of RseA
Assay: Cleavage of 35S-labeled RseA periplasmic domain by DegS variants
Format: biochemical, E. coli
Settings: H198P background; with YYF; % of H198P parent

**Q.** With B1 as the molecule, how does the “YYF-stimulated cleavage activity relative to H198P parental enzyme” value read?
**A.** 9–24%

**Q.** B2 was tested. Which “YYF-stimulated cleavage activity relative to H198P parental enzyme” value did it give?
**A.** 9–24%

Same assay, conditions: WT background; compared to wild-type DegS

**Q.** How did the “YYF-stimulated cleavage activity, in words” value turn out when B3 was run?
**A.** almost no cleavage activity

**Q.** Which “YYF-stimulated cleavage activity, in words” value does the source give for B4 here?
**A.** almost no cleavage activity

Same assay, conditions: WT background; with YYF; % of wild-type activity

**Q.** With B5 as the molecule, how does the “YYF-stimulated cleavage activity relative to wild type” value read?
**A.** less than 2%

**Q.** How did the “YYF-stimulated cleavage activity relative to wild type” value turn out when B6 was run?
**A.** less than 2%

**Q.** Which “YYF-stimulated cleavage activity relative to wild type” value does the source give for B7 here?
**A.** less than 2%

**Q.** With B8 as the molecule, how does the “YYF-stimulated cleavage activity relative to wild type” value read?
**A.** less than 2%

**Q.** How did the “YYF-stimulated cleavage activity relative to wild type” value turn out when B9 was run?
**A.** less than 2%

**Q.** How did the “YYF-stimulated cleavage activity relative to wild type” value turn out when B10 was run?
**A.** less than 2%
